Reference: US20250034601A1, “HETERODIMERIC BENZALDEHYDE SYNTHASE, METHODS OF PRODUCING, AND USES THEREOF” (Purdue Research Foundation, priority 2021, published 2025)

Columns and labels:
N. benthamiana leaves = test: Reconstitution of benzaldehyde biosynthetic pathway in N. benthamiana leaves, benzylalcohol formation; format: in vivo, Nicotiana benthamiana; details: 150 mM Phe feeding for 24 hours, after Viscozyme treatment; means ± SE, n=5
Text: In addition, the complete benzaldehyde β-oxidative biosynthetic pathway was reconstituted in N. benthamiana by expressing together with the PhBS four additional genes encoding phenylalanine ammonia lyase 1 (PhPAL1), PhCNL, PhCHD and PhKAT. Klempien et al. (2012), supra; Qualley et al., Completion of the core 0-oxidative pathway of benzoic acid biosynthesis in plants. Proceedings of the National Acad of Sciences of the U.S.A. 109: 16383-16388 (2012); Moerkercke et al., A plant thiolase involved in benzoic acid biosynthesis and volatile benzenoid production, The Plant J. 60: 292-302 (2009).
The coding sequences of PhPAL1, PhCNL, PhCHD, PhKAT, PhBSα (SEQ ID NO: 1) and PhBSβ (SEQ ID NO: 2) were PCR amplified with gene-specific primers (see Table 1 of FIG. 24) from petunia flower cDNAs and cloned into binary vector pCNHP using ClonExpress II One Step Cloning Kit (Vazyme Biotech Co., Piscataway, NJ). After sequence verification, plasmids were transformed into Agrobacterium tumefaciens strain GV3101. Single colonies for each construct were picked and cultured at 28° C. in 3 mL of LB medium supplied with 50 mg/L rifampicin, 50 mg/L gentamycin and 50 mg/L kanamycin to an OD600 of about 2.0. Bacterial cultures were pelleted, washed with a 10 mM MgCl2 solution containing 200 μM acetosyringone, and incubated in the same solution for additional 2 hours at room temperature. […]

[1] = Substrate specificity of purified BS with benzoyl-CoA and hydroxycinnamoyl-CoA analogs (GC-MS); format: biochemical; details: 1:1 ratio between α and β subunits, NADPH; cinnamoyl-, para-coumaroyl-, caffeoyl-, feruloyl-, sinapoyl-CoA versus benzoyl-CoA
Text: The response of internal standard in each run was set as 100%.
To analyze substrate specificity of PhBS, CoA esters were enzymatically synthesized from cinnamic acid, para-coumaric acid, caffeic acid, ferulic acid and sinapic acid using purified recombinant petunia 4-coumarate:CoA ligase (Ph4CL1) purified using the protocols described herein (FIG. 11B; triangle indicates the position of the Ph4CL1 protein). […] The experiment was repeated at least six times with similar results.
To test whether AtBS is involved in the biosynthesis of other aromatic aldehydes, hydroxycinnamoyl-CoA thioesters were incubated with purified AtBS enzyme, and the corresponding aldehyde formation was analyzed. Briefly, GC-MS analysis was performed of the products formed by AtBS from different hydroxycinnamoyl-CoA substrates. […] Shown in FIG. 22 are the combined EICs of mass units 106 (benzaldehyde), 128 (internal standard), 131 (cinnamaldehyde), and 178 (coniferaldehyde).

[2] = Purified PhBS with short-chain fatty acyl-CoA substrates (GC-MS); format: biochemical; details: 1 mM fatty acyl-CoA, 28° C., 1 hour
Procedure: Given the peroxisomal localization of PhBS, it was also analyzed if purified PhBS could be involved in metabolism of short-chain fatty acyl-CoA esters. […] All reactions were carried out at 28° C. for 1 hour.

B1: PhBS: heterodimeric Petunia hybrida benzaldehyde synthase of PhBSα (SEQ ID NO: 1) and PhBSβ (SEQ ID NO: 2) subunits, 1:1 ratio (protein, listed as Petunia hybrida)
alpha: MEKQTQARFLEPWRDLKGKVVMVTGASSGIGLDLCLDLAKAGCKIIAAARRVDRLKSLCNQINAAADDDDDNNRAVAVELDVSANGDAIEAAVKEAWGAFGRIDALVNNAGVRGTVHSPLELTEEECHNTFRTNLTGTWLVSKYVCKFMRDAKQGGSVINISSIAGLNRGQLPGGLAYVSSKGAVNMVTKVMALELGVDKIRVNSISPGLFKSEITQGLIQKEWLNNVAMRTIPLRTHGNSADPALTSVVRYLIHDSSEYVSGNLFIVDAGATLPGVPIFSSL
beta: MENSGKKVLLTSNGDDICNNIAYHLAQRGCQLVLMGNESQLKSVAEMIKQSLGGSAAVEVVGLDMEEDREAAFEEAVDKAWKIFGKLDALVNCYSYEGKMQDPLQLIEEEFKKIVKINFMAGWYLMKCISKKMRDDKSGGSIVFLTSIIGAERGIYQGAAAYGSCLGGIQQLVRLAAIELGKHQIRVNGISRGLHLQDEYPKAVGLERAEKMTKEAAPLNRWLDVKKDLASTVIYLISDDSRYMTGTSIFVDGAQSLVRPRMRSYM
benzylalcohol produced in infiltrated leaves (N. benthamiana leaves): 327.9±14.3 nmol·g FW^−1
substrate specificity (aldehyde formation from CoA esters) [1]: strict substrate selectivity for benzoyl-CoA
product formed from hexanoyl-CoA [2]: only trace amounts of hexanal were detected
